{"source": "patent US20260226138A1", "about": "“COMBINATION TUMOR THERAPY WITH THROMBOSIS INITIATION AND PLATELET RECRUITMENT” (Wisconsin Alumni Research Foundation, priority 2022, published 2026)", "molecules": {"B1": {"name": "tTF-RGD: fused protein of truncated tissue factor (extracellular domain of TF) and RGD motif; SEQ ID NO: 9 (protein)", "chain": "SGTTNTVAAYNLTWKSTNFKTILEWEPKPVNQVYTVQISTKSGDWKSKCFYTTDTECDLTDEIVKDVKQTYLARVFSYPAGNVESTGSAGEPLYENSPEFTPYLETNLGQPTIQSFEQVGTKVNVTVEDERTLVRRNNTFLSLRDVFGKDLIYTLYYWKSSSSGKKTAKTNTNEFLIDVDKGENYCFSVQAVIPSRTVNRKSTDSPVECMGQEKGEFRRGD"}}, "key": {"[1]": {"target": "integrin receptors on the angiogenic blood vessels in the tumor site", "assay": "cell-based or functional assay"}, "CT26 tumors [2]": {"test_system": "CT26 tumors", "assay": "Recruitment of P-aPD-1 to tumor, i.v. injected protein (systemic strategy)", "assay_type": "in vivo, mice", "method": "(§1) Recruitment of P-aPD-1 by tTF-RGD treatment: The recruitment of P-aPD-1 to tumor sites by tTF-RGD-initiated coagulation was studied using IVIS. P-aPD-1 was reacted with sulfo-Cy5.5-NHS ester at room temperature for 1 h and washed three times with PBS to remove unreacted dyes. For the local treating strategy, BSA, tTF, and tTF-RGD were given at the dose of 0.4 mg/kg via p.t. injection to mice bearing CT26 tumors, followed by i.v. injection of approximately 1×10^8 P-aPD-1 (aPD-1:1 mg/kg). For the systemic treatment strategy, BSA, tTF, and tTF-RGD were given at the dose 1.25 mg/kg via i.v. injection to mice bearing CT26 tumors, followed by i.v. injection of approximately 1×10^8 P-aPD-1 (aPD-1:1 mg/kg). […] At 24 h, the mice were euthanized, and tumors were collected and visualized ex vivo."}, "PDX breast tumors": {"test_system": "PDX breast tumors", "assay": "Recruitment of DiR-loaded PM-NP to PDX tumor (IVIS)", "assay_type": "in vivo, mice", "settings": "ex vivo, 24 h, i.v. 1.25 mg/kg", "method": "Recruitment of PM-NP by tTF-RGD-triggered coagulation: The recruitment of PM-NP to tumor sites by tTF-RGD-initiated coagulation was studied using IVIS. NPs were loaded with DiR and coated with platelet membranes. The PM-NP was washed three times with PBS to remove unreacted dyes. tTF or tTF-RGD was given at the dose of 1.25 mg/kg via i.v. injection to mice bearing PDX breast tumors. One hour later, 2 mg of NPs and PM-NPs were administered via i.v. injection. […] At 24 h, the mice were euthanized, and tumors were collected and visualized ex vivo."}, "CT26 tumors [3]": {"test_system": "CT26 tumors", "parameters": "species or system mice", "settings": "mouse, in vivo, iv, 1.25 mg/kg", "method": "Tumor vasculature-targeting and coagulation initiating ability tTF-RGD: The tumor vasculature-targeting ability of tTF-RGD was investigated using IVIS. Briefly, tTF and tTF-RGD were labeled with sulfo-Cy5.5-NHS ester and dialyzed against PBS at 4° C. to remove unreacted dyes. Balb/C mice (6-8 weeks, male) were inoculated with 1×10^6 CT26 cells. When the tumor volumes reached 100-150 mm^3 (calculated as length×width^2×0.5), Cy5.5-labeled tTF or tTF-RGD were injected at the dose of 1.25 mg/kg via i.v. route to mice bearing CT26 tumors. […] At 24 h, the mice were euthanized, and tumors were collected and visualized ex vivo. The fluorescence was analyzed using Living Image Software v.4.3.1 (Perkin Elmer)."}, "CT26 tumor-bearing mice [4]": {"test_system": "CT26 tumor-bearing mice", "assay": "Coagulation initiation after intratumoral injection, CT26 tumors", "assay_type": "in vivo", "method": "(§2) The coagulation initiation capability of tTF-RGD was investigated by treating CT26 tumor-bearing mice with 1.25 mg/kg of BSA, tTF, and tTF-RGD via intratumoral injection. Twenty-four hours later, the tumors were collected and subjected to H&E staining. To characterize the coagulation triggered by a lower dose of the tTF-RGD, 0.4 mg/kg of BSA, tTF, and tTF-RGD were administered into CT26 tumor-bearing mice via p.t. injection. Furthermore, mice bearing CT26 tumors were also treated with BSA, tTF and tTF-RGD (1.25 mg/kg) via i.v. injection every other day for 3 times in total. Twenty-four hours post injection of the last dose, the tumors and other major organs were collected and subjected to H&E staining."}, "[5]": {"test_system": "TM00096 human breast tumor PDX", "assay": "Coagulation in PDX tumors, H&E staining", "assay_type": "in vivo, mice", "settings": "i.v. injection with PM-NP, 24 h", "source_text": "Establishment of the PDX model: To establish the PDX model, TM00096 tumor samples were first propagated on Rag2-II2rg double knockout immunodeficient mice (R2G2® mice, 6-8 weeks, female) and then passaged to nude mice (6-8 weeks, female). Briefly, tumor tissues from R2G2® mice with TM00096 tumors were cut into small pieces, dispersed in the 1:1 mixture of DMEM medium and Matrigel® supplemented with FBS and antibiotics. The tiny tumor tissues were mixed well and placed on ice packs before being injected into the right flank of the nude mice using an 18-gauge needle (100 μL/mouse).\nNext, it was determined if tTF-RGD can recruit PM-NP to tumor sites. To validate the translational potential of our treatment strategy, a clinically relevant PDX mouse model was established (FIG. 7C). TM00096 human breast tumor tissues were implanted on the flank of the immunodeficient mice. To affirm that systemic injection of tTF-RGD can initiate the tumor-selective coagulation on the PDX model, tTF+PM-NP or tTF-RGD+PM-NP were administered to the mice via i.v. injection as described above in the CT26-bearing mice model. Twenty-four hours later, the PDX tumors were collected and subjected to H&E staining. […] In order to visualize the tumor-selective accumulation of PM-NP, DiR dyes were encapsulated into NPs, which were further coated with platelet membranes. […]"}, "CT26 tumors [6]": {"test_system": "CT26 tumors", "assay": "Tumor coagulation by Cy5.5-labeled fibrinogen accumulation (IVIS)", "assay_type": "in vivo, mice", "method": "To assess the tumor vasculature-coagulation triggered by tTF-RGD, fibrinogen was labeled with sulfo-Cy5.5-NHS ester and dialyzed against PBS to remove unreacted dyes. BSA, tTF or tTF-RGD were injected at the dose of 1.25 mg/kg via i.v. route to mice bearing CT26 tumors, followed by i.v. injection of 1 nmol of fibrinogen. […] At 24 h, the mice were euthanized, and tumors were collected and visualized ex vivo."}, "CT26 tumor-bearing mice [7]": {"test_system": "CT26 tumor-bearing mice", "assay": "Coagulation after three i.v. doses, H&E of tumors and major organs", "assay_type": "in vivo", "method": "as §2"}, "CT26 subcutaneous tumor [8]": {"test_system": "CT26 subcutaneous tumor", "assay": "Anti-tumor efficacy, subcutaneous CT26 model, systemic treating strategy", "assay_type": "in vivo, Balb/C mice", "settings": "tTF or tTF-RGD i.v. 1.25 mg/kg, aPD-1 0.3 mg/kg i.v., 3 doses", "method": "(§3) Anti-tumor efficacy of tTF-RGD+P-aPD-1: To establish a subcutaneous CT26 colon cancer model, Balb/C mice (6-8 weeks, male) were subcutaneously inoculated with 1×10^6 CT26 cells on the right flank. When the tumor volume reached100-150 mm^3, the mice were received different treatments, including saline, aPD-1, tTF-RGD, P-aPD-1, tTF+P-aPD-1 and tTF-RGD+P-aPD-1. For the local treating strategy, tTF or tTF-RGD (0.4 mg/kg) was firstly given by p.t. injection. Half an hour later, P-aPD-1 was administered via i.v. injection at the dose of 1 mg/kg. The treatment was conducted every other day for 3 times in total. For the systemic treating strategy, tTF or tTF-RGD (1.25 mg/kg) was first given by i.v. injection. One hour later, P-aPD-1 was administered via i.v. injection at the dose of 0.3 mg/kg. The treatment was conducted every other day for 3 times in total. The antibodies used in other treatment groups are also given at an equivalent dose. The tumor growth (calculated as: length×width^2×0.5) and body weight were monitored every other day. Mice were euthanized once the tumor volume exceeded 2 cm^3."}, "CT26 subcutaneous tumor [9]": {"test_system": "CT26 subcutaneous tumor", "assay": "Anti-tumor efficacy, subcutaneous CT26 model, local treating strategy", "assay_type": "in vivo, Balb/C mice", "settings": "tTF or tTF-RGD p.t. 0.4 mg/kg, aPD-1 1 mg/kg i.v., 3 doses", "method": "as §3"}, "CT26 tumors [10]": {"test_system": "CT26 tumors", "assay": "Recruitment of P-aPD-1 to tumor, p.t. injected protein (local strategy)", "assay_type": "in vivo, mice", "method": "as §1"}, "CT26 tumor-bearing mice [11]": {"test_system": "CT26 tumor-bearing mice", "assay": "Coagulation after p.t. injection of lower dose, CT26 tumors", "assay_type": "in vivo", "settings": "0.4 mg/kg", "method": "as §2"}, "[12]": {"test_system": "FX (proteolytic activation of FX by FVIIa)", "assay": "FX activation assay", "assay_type": "biochemical", "settings": "in the presence of factor VII (a) and Ca2+ ions", "method": "The FX activation activity was tested using a modified procedure based on a previous report in the art. Briefly, to each well of a black 96-well plate was added 100 μL of BSA, tTF, and tTF-RGD with different concentrations in Tris-buffered saline containing 0.1% BSA. […] After 5 min of incubation at room temperature, FX (Haematologic Technologies, Inc.) was added to reach a final concentration of 30 nM and reacted for an additional 5 min. The reaction was quenched by addition of 20 μL of 100 mmol/L EDTA solution before 10 μL of 6-amino-1-naphthalenesulfonamide-based (ANSN) fluorogenic substrate (10 mM) (Haematologic Technologies, Inc.) was added to the mixture. Three minutes later, the fluorescence intensities were measured with a microplate reader (excitation=352 nm, emission=470 nm)."}}}
{"molecule": "truncated tissue factor-Arg-Gly-Asp (RGD) fusion protein (tTF-RGD) (from UniProt P13726 33-250)", "values": [{"measurement": "mean fluorescence intensity (MFI) of tumor tissues ex vivo, 24 h after i.v. injection of Cy5.5-labeled protein, against the tTF group", "setting": "[1]", "result": 1.62, "unit": "fold"}]}
{"molecule": "B1", "values": [{"measurement": "accumulation of P-aPD-1 in tumor tissues, increase versus tTF group", "setting": "CT26 tumors [2]; ex vivo, 24 h, protein i.v. 1.25 mg/kg", "result": 1.89, "unit": "fold"}, {"measurement": "Rhodamine B-labeled P-aPD-1 fluorescence in resected tumors compared to BSA and tTF", "setting": "CT26 tumors [2]; i.v. injection", "result": "More fluorescence signals"}, {"measurement": "distribution of Cy5.5-labeled P-aPD-1 at tumor sites (imaging) compared to tTF and BSA", "setting": "CT26 tumors [2]; protein i.v. 1.25 mg/kg then i.v. P-aPD-1, time-course", "result": "increased distribution of P-aPD-1 at the tumor sites"}, {"measurement": "MFI of tumors, accumulation of PM-NP, increase versus tTF treatment", "setting": "PDX breast tumors", "result": 5.05, "unit": "fold"}, {"measurement": "mean fluorescence intensity (MFI) of tumor tissues relative to tTF group", "setting": "CT26 tumors [3]", "result": 1.62, "unit": "fold"}, {"measurement": "tumor targeting ability, fluorescence signals at tumor site", "setting": "CT26 tumors [3]", "result": "much stronger tumor targeting ability than tTF"}, {"measurement": "hemorrhage and thrombus formation in tumors", "setting": "CT26 tumor-bearing mice [4]; 1.25 mg/kg, data not shown", "result": "significant hemorrhage and thrombus formation"}, {"measurement": "coagulation in tumors", "setting": "CT26 tumor-bearing mice [4]; 24 h post-injection", "result": "severe coagulation"}, {"measurement": "coagulation in PDX tumor tissues (H&E)", "setting": "[5]", "result": "could induce coagulation in PDX tumor tissues without severe hemorrhage"}, {"measurement": "accumulation of Cy5.5-fibrinogen in tumors", "setting": "CT26 tumors [6]; 24 h post i.v. injections, protein 1.25 mg/kg", "result": "strong signals"}, {"measurement": "MFI of Cy5.5-fibrinogen in tumors, increase compared with tTF group", "setting": "CT26 tumors [6]; ex vivo, 24 h, i.v. 1.25 mg/kg", "result": 2.37, "unit": "fold"}, {"measurement": "coagulation in tumor tissues (H&E)", "setting": "CT26 tumor-bearing mice [7]; 24 h after three doses of i.v. injection, 1.25 mg/kg", "result": "initiated apparent coagulation"}, {"measurement": "hemorrhage or thrombus in other major organs (H&E)", "setting": "CT26 tumor-bearing mice [7]; after 3 doses of i.v. injection", "result": "no obvious hemorrhage or thrombus in other major organs"}, {"measurement": "hemorrhage / thrombosis", "setting": "CT26 tumor-bearing mice [7]; i.v. 1.25 mg/kg every other day for three times, data not shown", "result": "did not induce severe hemorrhage but could trigger thrombosis"}, {"measurement": "median survival time", "setting": "CT26 subcutaneous tumor [8]", "result": 27, "unit": "days"}, {"measurement": "median survival time", "setting": "CT26 subcutaneous tumor [9]", "result": 30, "unit": "days"}, {"measurement": "tumor growth inhibition", "setting": "CT26 subcutaneous tumor [9]", "result": "negligible tumor-inhibiting activity"}, {"measurement": "fluorescence signals of P-aPD-1 in tumor tissues, increase versus tTF group", "setting": "CT26 tumors [10]; ex vivo, 24 h, protein p.t. 0.4 mg/kg", "result": 1.87, "unit": "fold"}, {"measurement": "Rhodamine B-labeled P-aPD-1 fluorescence in resected tumors compared to BSA and tTF", "setting": "CT26 tumors [10]; p.t. injection", "result": "More fluorescence signals"}, {"measurement": "accumulation of Cy5.5-labeled P-aPD-1 at tumor site (imaging)", "setting": "CT26 tumors [10]; protein p.t. 0.4 mg/kg then i.v. P-aPD-1, from 4 h post injection", "result": "strong tendency to accumulate at the tumor site"}, {"measurement": "coagulation / hemorrhage in tumors", "setting": "CT26 tumor-bearing mice [11]", "result": "effectively triggered obvious coagulation without severe hemorrhage"}, {"measurement": "FX activation activity", "setting": "[12]", "result": "dose-dependent FX activation activity"}]}
